{"source": "paper PMC6363992", "key": {"[1]": {"molecular_target": "BTV1 VP5 H385A mutant, S-tagged recombinant protein (Bluetongue virus serotype 1 (BTV1))", "test": "SDS-PAGE without reduction and heating, Western blot"}, "[2]": {"molecular_target": "BTV1 VP5 H384-6A triple mutant, S-tagged recombinant protein (Bluetongue virus serotype 1 (BTV1))", "test": "SDS-PAGE without reduction and heating, Western blot"}, "[3]": {"molecular_target": "BTV1 VP5, wild-type, S-tagged recombinant protein (Bluetongue virus serotype 1 (BTV1))", "test": "SDS-PAGE without reduction and heating, Western blot"}, "[4]": {"molecular_target": "BTV1 VP5 anchoring domain (ANC) polypeptide, His-tagged (Bluetongue virus serotype 1 (BTV1))", "test": "SDS-PAGE without reduction and heating, Coomassie staining"}}, "data": [{"substance": "BTV1 VP5 H385A mutant, S-tagged recombinant protein (natural protein)", "values": [{"measurement": "percent trimer", "setting": "[1]", "result": 25, "unit": "%"}, {"measurement": "stoichiometry N", "setting": "[1]", "result": 3}]}, {"substance": "BTV1 VP5 H384-6A triple mutant, S-tagged recombinant protein (natural protein)", "values": [{"measurement": "percent trimer", "setting": "[2]", "result": 25, "unit": "%"}, {"measurement": "stoichiometry N", "setting": "[2]", "result": 3}]}, {"substance": "BTV1 VP5, wild-type, S-tagged recombinant protein (natural protein)", "values": [{"measurement": "percent trimer", "setting": "[3]", "result": 25, "unit": "%"}, {"measurement": "stoichiometry N", "setting": "[3]", "result": 3}]}, {"substance": "BTV1 VP5 anchoring domain (ANC) polypeptide, His-tagged (domain or fragment)", "values": [{"measurement": "percent trimer", "setting": "[4]", "result": 30, "unit": "%"}, {"measurement": "stoichiometry N", "setting": "[4]", "result": 3}]}]}
